Columns and labels:
[1] = target: CD33SP-OKT3scFv-CD28TC (鼠抗人CD3抗体 OKT3单链抗体, shown on CHO cells); assay: flow cytometry, 40 nM Biotin-Protein L on CHO cells transfected with OKT3scFv, Streptavidin PE
[2] = target: 全长的人CD226 (hCD226) on Jurkat cells (human) (UniProt Q15762); assay: flow cytometry on Jurkat cells transfected with TIGIT and CD226
[3] = target: T1, PVR (Poliovirus receptor) expressed on CHO-OKT3 cells (Homo sapiens (Human)) (UniProt P15151); assay: flow cytometry, 40 nM TIGIT-Fc on CHO-OKT3 cells transfected with PVR, anti-human Fc-PE
T1 sequence: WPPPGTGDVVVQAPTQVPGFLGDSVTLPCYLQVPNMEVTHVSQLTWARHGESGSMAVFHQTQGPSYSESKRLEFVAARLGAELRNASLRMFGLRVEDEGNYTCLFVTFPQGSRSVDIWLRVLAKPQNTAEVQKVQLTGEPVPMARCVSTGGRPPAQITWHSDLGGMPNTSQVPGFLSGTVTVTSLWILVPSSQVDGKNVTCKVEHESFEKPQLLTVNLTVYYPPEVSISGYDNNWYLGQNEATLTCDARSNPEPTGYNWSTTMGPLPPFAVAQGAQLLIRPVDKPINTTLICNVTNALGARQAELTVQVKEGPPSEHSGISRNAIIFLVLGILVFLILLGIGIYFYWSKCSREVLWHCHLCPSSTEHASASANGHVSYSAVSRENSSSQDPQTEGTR

Chain of UniProt Q15762 (Q15762 19-336 limits assumed): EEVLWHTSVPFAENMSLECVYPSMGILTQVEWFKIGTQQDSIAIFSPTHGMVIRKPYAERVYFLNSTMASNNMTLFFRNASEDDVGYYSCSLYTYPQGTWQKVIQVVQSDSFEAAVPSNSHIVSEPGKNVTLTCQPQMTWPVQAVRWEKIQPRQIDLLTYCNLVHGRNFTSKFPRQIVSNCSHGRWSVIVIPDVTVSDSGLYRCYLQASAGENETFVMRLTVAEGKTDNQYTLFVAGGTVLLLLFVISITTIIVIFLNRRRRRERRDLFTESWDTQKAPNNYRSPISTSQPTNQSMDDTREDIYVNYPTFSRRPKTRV
Chain of CD33SP-OKT3scFv-CD28TC (鼠抗人CD3抗体 OKT3单链抗体, shown on CHO cells) (scFv, as listed by the source): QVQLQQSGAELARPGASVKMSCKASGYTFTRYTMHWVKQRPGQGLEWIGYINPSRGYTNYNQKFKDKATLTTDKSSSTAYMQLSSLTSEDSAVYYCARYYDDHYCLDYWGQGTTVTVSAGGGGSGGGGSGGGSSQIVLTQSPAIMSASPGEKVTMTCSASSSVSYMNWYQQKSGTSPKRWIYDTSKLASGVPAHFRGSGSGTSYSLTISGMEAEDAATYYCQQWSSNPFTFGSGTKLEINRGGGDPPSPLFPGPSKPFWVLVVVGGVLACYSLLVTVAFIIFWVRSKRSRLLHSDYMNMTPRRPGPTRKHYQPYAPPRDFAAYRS

Biotin-Protein L (金斯瑞生物科技, 货号 M00097)
阳性率 (percent positive cells) [1]: 42.6%

anti-CD226 PE (R&D Systems, Inc. #FAB666P) (antibody)
细胞阳性率 (percent positive cells) [2]: 12.7%

B1: TIGIT-Fc蛋白 (Fc fusion, UniProt Q495A1 22-141, looked up, not shown: a dimerising Fc or GST)
chain: MMTGTIETTGNISAEKGGSIILQCHLSSTTAQVTQVNWEQQDQLLAICNADLGWHISPSFKDRVAPGPGLGLTLQSLTVNDTGEYFCIYHTYPDGTYTGRIFLEVLESSVAEHGARFQIP
阳性率 (percent positive cells) [3]: 93.2%
